Reference: patent US6384189

Target: recombinant small latent TGF-β
Assay: cell-based or functional assay

RFK (SEQ ID NO:18) (peptide)
Fold Activation of Latent TGF-β over Baseline (soft agar NRK colony formation) (fold over baseline): 2.5

TSP stripped of TGF-β activity (sTSP) (from UniProt P07996 19-1170)
Fold Activation of Latent TGF-β over Baseline (soft agar NRK colony formation) (fold over baseline): 2
